This series has as its target SlERF4-9-GST (Solanum lycopersicum (tomato), UniProt A0A3Q7G811 1-264). Kind of series: EMSA; Beyotime Chemiluminescent EMSA Kit; 100x cold probe as competitor; buffer, salt, pH and temperature not stated. The settings on record: protein: recombinant; tags: GST (pGEX6P-1); label: biotin on both strands (3' end); blunt. In general terms: In EMSA bound probe runs differently from free probe, usually more slowly.

Sequence of SlERF4-9-GST (A0A3Q7G811 entry or part of it): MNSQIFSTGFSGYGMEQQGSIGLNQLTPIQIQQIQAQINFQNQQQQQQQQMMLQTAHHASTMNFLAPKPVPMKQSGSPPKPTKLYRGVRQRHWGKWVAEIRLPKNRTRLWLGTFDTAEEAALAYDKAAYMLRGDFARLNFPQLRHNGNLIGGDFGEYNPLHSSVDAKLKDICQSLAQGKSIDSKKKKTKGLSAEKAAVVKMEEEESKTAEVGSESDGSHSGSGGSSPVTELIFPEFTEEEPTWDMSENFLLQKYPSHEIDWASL

B1: proCDF1 probe (P1 site) (dsDNA)
DNA 1: ACGACGTTGGCCGGCGGCGGCGAATTCACGGCGGCTAAACGAGTTTT
DNA 2: AAAACTCGTTTAGCCGCCGTGAATTCGCCGCCGCCGGCCAACGTCGT
With B1, the binding result is given as “binds”.

B2: proCDF3 probe (P2 site) (dsDNA)
DNA 1: CGTCAACTCGCCGGCGGCGACTTCGTCGGA
DNA 2: TCCGACGAAGTCGCCGCCGGCGAGTTGACG
In the case of B2, the binding result was “binds”.

The record behind these values is paper PMC11985770, “The SlERF4-9-SlCDF1/3-SlAEC2/SlPIN5 module regulates tomato root morphogenesis”.
